Assay results from publication PMC4884477.

Columns and labels:
E. coli Hfq = E. coli Hfq (Escherichia coli, UniProt P0A6X3 1-102); assay: fluorescence anisotropy
S. aureus Hfq = S. aureus Hfq (Staphylococcus aureus, UniProt A0A0H3JV59 1-77); assay: fluorescence anisotropy

Binder: GUGGUCAGUCGAGUGGCUUCCGUCCAUUUCGGACGUUUUUU (structured_RNA) [Cy3-mini-sRNA]
- Kd (E. coli Hfq): 2.7 ± 0.8 nM
- Kd (S. aureus Hfq): 100 nM
